# Experimental data reported in patent publication US20170189508A1 (IMMATICS BIOTECHNOLOGIES, published 2017).
# Where two headings read alike, the source gives them in different places.
# Legend:
# [1] = target: HLA-A*02 (human)
# [2] = target: HLA-A*02 (human); assay: as the table's title states
binding result [1],binding result [2],Binder
binds,,KIIDFLSAL [KIIDFLSAL (SEQ ID NO: 235)]
binds,,KLQNIMMLL [KLQNIMMLL (SEQ ID NO: 230)]
,binds,RLMEENWNA [RLMEENWNA (SEQ ID NO: 27)]
binds,,AILAHLNTV [AILAHLNTV (SEQ ID NO: 229)]
